Assay results: US20210309720A1 (MIT, published 2021)
One block for each binder: values may come before it.

How the values were obtained:
IL8 = target: T1, IL8 (UniProt P10145 28-99, limits assumed); assay: MicroScale Thermophoresis, 5 nM NT647-labeled receptor against a gradient of ligand, 25 C
T1 sequence (looked up): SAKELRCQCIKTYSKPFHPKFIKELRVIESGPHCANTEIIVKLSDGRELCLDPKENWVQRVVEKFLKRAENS
Method: (§1) The affinity of QTY modified cytokine receptor fused with Fc of IgG for their respective native ligands was measured using MicroScale Thermophoresis (MST). Changes in thermophoretic movement for labeled proteins upon ligand-binding were recorded and plotted as a function of ligand concentration.
(§2) MicroScale Thermophoresis (MST) is an optical method detecting changes in thermophoretic movement and TRIC of the protein-attached fluorophore upon ligand binding. Active labelled proteins contribute to the thermophoresis signal upon ligand binding. […] Herein ligand binding experiments were carried out with 5 nM NT647-labeled protein in 1×PBS, 10 mM DTT buffer with different concentration of arginine, against a gradient of respective ligands on a Monolith NT.115 pico instrument at 25° C. Synthesized receptors were labeled with Monolith NT™ 2nd generation protein labeling kit RED-NHS (NanoTemper Technologies) so as to obtain unique fluorescent signals. MST time traces were recorded and analyzed to obtain the highest possible signal-to-noise levels and amplitudes, >5 Fnorm units. The recorded fluorescence was plotted against the concentration of ligand, and curve fitting was performed using the Kd fit formula derived from the law of mass action. For clarity, binding graphs of each independent experiment were normalized to the fraction bound (0=unbound, 1=bound). […]

CCL25 = target: T2, CCL25 (UniProt O15444 24-150); assay: as above
T2 sequence (looked up): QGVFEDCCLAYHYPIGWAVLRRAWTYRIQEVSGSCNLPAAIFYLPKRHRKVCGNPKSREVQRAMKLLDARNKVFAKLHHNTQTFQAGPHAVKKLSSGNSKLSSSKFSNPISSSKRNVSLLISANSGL
Method: as §1, §2

Kd (IL8): 60.3 nM
B1: CXCR2-QTY Fc (Fc fusion)
chain: MEDFNMESDSFEDFWKGEDLSNYSYSSTLPPFLLDAAPCEPESLEINKYYTTTTYAQTYQQSQQGNSQTMQTTQYSRVGRSVTDTYQQNQAQADQQYAQTQPTWAASKVNGWIFGTFLCKTTSQQKETNYYSGTQQQACTSTDRYLAIVHATRTLTQKRYLVKYTCQSTWGQSQQQAQPTQQYRRTVYSSNVSPACYEDMGNNTANWRMQQRTQPQSYGYTQPQQTMQYCYGFTLRTLFKAHMGQKHRAMRTTYATTQTYQQCWQPYNQTQQADTLMRTQVIQETCERRNHIDRAQDATETQGTQHSCQNPQTYAYTGQKFRHGLLKILAIHGLISKDSLPKDSRPSFVGSSSGHTSTTLTETSQVAPAHHHHHHHHHHGSKLVDPRGPTIKPCPPCKCPAPNLLGGPSVFIFPPKIKDVLMISLSPIVTCVVVDVSEDDPDVQISWFVNNVEVHTAQTQTHREDYNSTLRVVSALPIQHQDWMSGKEFKCKVNNKDLPAPIERTISKPKGSVRAPQVYVLPPPEEEMTKKQVTLTCMVTDFMPEDIYVEWTNNGKTELNYKNTEPVLDSDGSYFMYSKLRVEKKNWVERNSYSCSVVHEGLHNHHTTKSFSRTPGK
modifications: labeled with NT647 fluorescent dye (Monolith NT 2nd generation protein labeling kit RED-NHS)
notes: also called Fc fusion QTY CXCR2 variant receptor protein

Kd (CCL25): 37.2 nM
B2: CCR9-QTY Fc (Fc fusion)
chain: MTPTDFTSPIPNMADDYGSESTSSMEDYVNFNFTDFYCEKNNVRQFASHYQPPQYWQTYTTGAQGNSQTTQTYWYCTRVKTMTDMYQQNQATADQQYQTTQPYWATAAADQWKFQTFMCKTTNSMYKMNYYSCTQQTMCTSTDRYTATAQAMRAHTWREKRQQYSKMTCYTTWTQAAAQCTPETQYSQIKEESGIAICTMVYPSDESTKQKSATQTQKTTQGYYQPYTTMACCYTTTTHTQTQAKKSSKHKAQKTTTTTQTTYTQSQYPYNCTQQTQTTDAYAMFISNCATSTNTDTCYQTTQTTAYYHSCQNPTQYTYTGERFRRDLVKTLKNLGCISQAQWVSFTRREGSLKLSSMLLETTSGALSLTETSQVAPAHHHHHHHHHHTETSQVAPAHHHHHHHHHHGSKLVDPRGPTIKPCPPCKCPAPNLLGGPSVFIFPPKIKDVLMISLSPIVTCVVVDVSEDDPDVQISWFVNNVEVHTAQTQTHREDYNSTLRVVSALPIQHQDWMSGKEFKCKVNNKDLPAPIERTISKPKGSVRAPQVYVLPPPEEEMTKKQVTLTCMVTDFMPEDIYVEWTNNGKTELNYKNTEPVLDSDGSYFMYSKLRVEKKNWVERNSYSCSVVHEGLHNHHTTKSFSRTPGK
modifications: labeled with NT647 fluorescent dye (Monolith NT 2nd generation protein labeling kit RED-NHS)
notes: also called Fc fusion QTY CCR9 variant receptor protein
